# Experimental data reported in US20050277762A1 (published 2005).
# B1: USP14 (TGT) (enzyme, mouse (EL-4 cell lysate), UniProt Q9JMA1 1-493, looked up)
# chain: MPLYSVTVKWGKEKFEGVELNTDEPPMVFKAQLFALTGVQPARQKVMVKGGTLKDDDWGNIKMKNGMTVLMMGSADALPEEPSAKTVFVEDMTEEQLATAMELPCGLTNLGNTCYMNATVQCIRSVPELKDALKRYAGALRASGEMASAQYITAALRDLFDSMDKTSSSIPPIILLQFLHMAFPQFAEKGEQGQYLQQDANECWIQMMRVLQQKLEAIEDDSGRETDSSSAPAVTPSKKKSLIDQYFGVEFETTMKCTESEEEEVTKGKENQLQLSCFINQEVKYLFTGLKLRLQEEITKQSPTLQRNALYIKSSKISRLPAYLTIQMVRFFYKEKESVNAKVLKDVKFPLMLDVYELCTPELQEKMVSFRSKFKDLEDKKVNQQPNANDKNSPPKEIKYEPFSFADDIGSNNCGYYDLQAVLTHQGRSSSSGHYVSWVRRKQDEWIKFDDDKVSIVTPEDILRLSGGGDWHIAYVLLYGPRRVEIMEEESEQ
# notes: also called p58
# B2: Ubp1 (enzyme, S. cerevisiae, UniProt P25037 1-809, looked up)
# chain: MDLFIESKINSLLQFLFGSRQDFLRNFKTWSNNNNNLSIYLLIFGIVVFFYKKPDHLNYIVESVSEMTTNFRNNNSLSRWLPRSKFTHLDEEILKRGGFIAGLVNDGNTCFMNSVLQSLASSRELMEFLDNNVIRTYEEIEQNEHNEEGNGQESAQDEATHKKNTRKGGKVYGKHKKKLNRKSSSKEDEEKSQEPDITFSVALRDLLSALNAKYYRDKPYFKTNSLLKAMSKSPRKNILLGYDQEDAQEFFQNILAELESNVKSLNTEKLDTTPVAKSELPDDALVGQLNLGEVGTVYIPTEQIDPNSILHDKSIQNFTPFKLMTPLDGITAERIGCLQCGENGGIRYSVFSGLSLNLPNENIGSTLKLSQLLSDWSKPEIIEGVECNRCALTAAHSHLFGQLKEFEKKPEGSIPEKLINAVKDRVHQIEEVLAKPVIDDEDYKKLHTANMVRKCSKSKQILISRPPPLLSIHINRSVFDPRTYMIRKNNSKVLFKSRLNLAPWCCDINEINLDARLPMSKKEKAAQQDSSEDENIGGEYYTKLHERFEQEFEDSEEEKEYDDAEGNYASHYNHTKDISNYDPLNGEVDGVTSDDEDEYIEETDALGNTIKKRIIEHSDVENENVKDNEELQEIDNVSLDEPKINVEDQLETSSDEEDVIPAPPINYARSFSTVPATPLTYSLRSVIVHYGTHNYGHYIAFRKYRGCWWRISDETVYVVDEAEVLSTPGVFMLFYEYDFDEETGKMKDDLEAIQSNNEEDDEKEQEQKGVQEPKESQEQGEGEEQEEGQEQMKFERTEDHRDISGKDVN
# notes: also called Ubp1p
# B3: Ubp15 (enzyme, S. cerevisiae, UniProt P50101 1-1230, looked up)
# chain: MSSEDELGSIGTVFPGSPIDKSIGSILPQFDEEVETLLEDSFTWNIPDWNELTNPKYNSPRFRIGDFEWDILLFPQGNHNKGVAVYLEPHPEEKLDETTGEMVPVDPDWYCCAQFAIGISRPGNGDTINLINKSHHRFNALDTDWGFANLIDLNNLKHPSKGRPLSFLNEGTLNITAYVRILKDPTGVLWHNFLNYDSKKVTGYVGFRNQGATCYLNSLLQSYFFTKYFRKLVYEIPTEHESPNNSVPLALQRAFYQLQVSDIPLDTLELTRSFGWDTAESFTQHDVQELNRILMDRLENNMKGTPVEGKLNEIFVGKMKSYIKCINVDYESARVEDFWDLQLNVKNFKNLQESFDNYIEMELMNGENQYAAQDYGLQDAQKGVIFESFPPVLHLQLKRFEYDFNYDQMVKVNDKYEFPETIDLSPFVDKDVLKKTLDSENKDKNPYVYNLHGVLVHSGDISTGHYYTLIKPGVEDQWYRFDDERVWRVTKKQVFQENFGCDRLPDEKVRTMTRGEYQNYIIQRHTSAYMLVYIRQEQEEDLLRPVLESDVPKHVITRVREEIKERETKEKEIREAHLYVTLRLHSIKEFIHYEGFDYFAHDGFRLFAEELNDSGLQQINLKVLRTTKLSDIFASIKETMNIPQERDVKYWKMDYRRNSTLRLTQPINFESVNITLQEALKKEKKRTMQTQYGEEGVASTEEDDKALLETVSFLDLFIEEPYLELQFLNKLKEASLISKAQLDDELISTIRTNLPELTKGGIEPVFATDNKSNLLFVKSYDPHTQKLLGFGHFAVNQLQQLSDISAIIEDSISSNEKLTFYEEVQPGTINEIYMKETIYDADIDTGDIVSFEVPGAVLPDTFPVYATIKDFYSYLRYRVKLKFSKFDGSSEEYGVSNEIPESFEFWISAYAPYDDLARMVSKYAHVKPEYLKIIALYSNGRFVLKSTSLLNDYLLKDFNCDQIPPFAFEVLSVPLKELERLRPIKLYWLKNSYIHYQCFEFEVANDYTESQFLEKVQHKIGFTDEEKENILLWTNTNFQFQGLLSDQNTFKDVSKHSLLFGRILPEESKLFKELNRLENVQTSSLEDFMDDENATDRPMDDEQDLGMAIEHSEDMKGRIVVVQQYFKDLENRHGISFLFNLIPDETFPKTKDRLHAKFGLGQKEFSKIKLSIGYSTEEGTVFRSLQGFSDEELDKVILYDIMSNLDYIYMDHPDRLRSHSSYDRPMIIKN
# notes: also called Ubp15p
# B4: Ubp2 (enzyme, S. cerevisiae, UniProt Q01476 1-1272, looked up)
# chain: MPNEDNELQKAIENHHNQLLNQDKENADRNGSVIEDLPLYGTSINQQSTPGDVDDGKHLLYPDIATNLPLKTSDRLLDDILCDTIFLNSTDPKVMQKGLQSRGILKESMLSYSTFRSSIRPNCLGSLTDQVVFQTKSEYDSISCPKYNKIHVFQAVIFNPSLAEQQISTFDDIVKIPIYHLKVSVKVRQELERLKKHVGVTQFHSLDHLHEYDRVDLSTFDSSDPNLLDYGIYVSDDTNKLILIEIFKPEFNSPEEHESFTADAIKKRYNAMCVKNESLDKSETPSQVDCFYTLFKIFKGPLTRKSKAEPTKTIDSGNLALNTHLNPEWLTSKYGFQASSEIDEETNEIFTEYVPPDMVDYVNDLETRKIRESFVRKCLQLIFWGQLSTSLLAPNSPLKNTKSVKGMSSLQTSFSTLPWFHLLGESRARILLNSNEQTHSPLDAEPHFINLSVSHYYTDRDIIRNYESLSSLDPENIGLYFDALTYIANRKGAYQLIAYCGKQDIIGQEALENALLMFKINPKECNISELNEATLLSIYKYETSNKSQVTSNHLTNLKNALRLLAKYTKSDKLKFYVDHEPYRALSQAYDTLSIDESVDEDIIKTAYSVKINDSPGLKLDCDRALYTIAISKRSLDLFNFLTEECPQFSNYYGPEKLDYQEALKLLQVNENASDETILKIFKQKWFDENVYEPDQFLILRAALTKISIERNSTLITNFLLTGTIDPNSLPPENWPTGINNIGNTCYLNSLLQYYFSIAPLRRYVLEYQKTVENFNDHLSNSGHIRRIGGREISRGEVERSIQFIYQLRNLFYAMVHTRERCVTPSKELAYLAFAPSNVEVEFEVEGNKVVDQTGVLSDSKKETTDDAFTTKIKDTSLIDLEMEDGLNGDVGTDANRKKNESNDAEVSENEDTTGLTSPTRVAKISSDQLENALEMGRQQDVTECIGNVLFQIESGSEPIRYDEDNEQYDLVKQLFYGTTKQSIVPLSATNKVRTKVERFLSLLINIGDHPKDIYDAFDSYFKDEYLTMEEYGDVIRTVAVTTFPTILQVQIQRVYYDRERLMPFKSIEPLPFKEVIYMDRYADTENPLLLAKKKETEEMKQKLKVMKNRQRELLSRDDSGLTRKDAFLESIKLLESDTIKKTPLKIEAANDVIKTLRNNVQNIDNELMKLYNDINSLEEKISHQFDDFKEYGYSLFSVFIHRGEASYGHYWIYIKDRNRNGIWRKYNDETISEVQEEEVFNFNEGNTATPYFLVYVKQGQEGDIEPLKRILK
# notes: also called Ubp2p
# B5: Ubp6 (enzyme, S. cerevisiae, UniProt P43593 1-499, looked up)
# chain: MSGETFEFNIRHSGKVYPITLSTDATSADLKSKAEELTQVPSARQKYMVKGGLSGEESIKIYPLIKPGSTVMLLGTPDANLISKPAKKNNFIEDLAPEQQVQQFAQLPVGFKNMGNTCYLNATLQALYRVNDLRDMILNYNPSQGVSNSGAQDEEIHKQIVIEMKRCFENLQNKSFKSVLPIVLLNTLRKCYPQFAERDSQGGFYKQQDAEELFTQLFHSMSIVFGDKFSEDFRIQFKTTIKDTANDNDITVKENESDSKLQCHISGTTNFMRNGLLEGLNEKIEKRSDLTGANSIYSVEKKISRLPKFLTVQYVRFFWKRSTNKKSKILRKVVFPFQLDVADMLTPEYAAEKVKVRDELRKVEKEKNEKEREIKRRKFDPSSSENVMTPREQYETQVALNESEKDQWLEEYKKHFPPNLEKGENPSCVYNLIGVITHQGANSESGHYQAFIRDELDENKWYKFNDDKVSVVEKEKIESLAGGGESDSALILMYKGFGL
# notes: also called Ubp6p
# B6: Yuh1 (enzyme, S. cerevisiae, UniProt P35127 1-236, looked up)
# chain: MSGENRAVVPIESNPEVFTNFAHKLGLKNEWAYFDIYSLTEPELLAFLPRPVKAIVLLFPINEDRKSSTSQQITSSYDVIWFKQSVKNACGLYAILHSLSNNQSLLEPGSDLDNFLKSQSDTSSSKNRFDDVTTDQFVLNVIKENVQTFSTGQSEAPEATADTNLHYITYVEENGGIFELDGRNLSGPLYLGKSDPTATDLIEQELVRVRVASYMENANEEDVLNFAMLGLGPNWE
# notes: also called Yuh1p
# Target: T1, ubiquitin aldehyde (Ubal) (UniProt P0CG47 1-76, C-terminal residue as aldehyde)
# Assay: competition: lysate pre-treated with Ubal, then [^125I]-UbVS labeling
row,Binder,binding result
1,B1,binds

# Target: T1, ubiquitin aldehyde (Ubal)
# Assay: competition: wild type yeast lysate pre-incubated with increasing Ubal, then [^125I]-UbVS labeling
# Source text: Reactions were quenched with sample buffer, resolved by 10% SDS-PAGE and analyzed by autoradiography. Identity of bands was assigned based on the absence of a band corresponding to the molecular weight of a DUB deleted in that strain.
row,Binder,binding result
1,B2,binds
2,B3,binds
3,B4,binds
4,B5,binds
5,B6,binds
